Residue numbers refer to the chain shown, from its start.
B1: chimeric IgG clone 1A1 (antibody, V domains shown)
VH: EVQLQQSGAELVRPGASVRLSCTASGFNIKDSLMHWLKQRPEQGLEWIGWIDPEDGETKYAPKFQDKATITADTSSNTAYLQLSSLTSEDTAIYYCTRRDWEGPWGQGTLVTVSA
VL: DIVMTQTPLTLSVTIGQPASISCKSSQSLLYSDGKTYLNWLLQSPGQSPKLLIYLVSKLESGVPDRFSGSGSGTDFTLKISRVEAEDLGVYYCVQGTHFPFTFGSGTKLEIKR
notes: mouse-human chimeric IgG from HEK293; also called anti-Tau 1A1; anti-Tau^1A1
B2: chimeric IgG clone 1G7 (antibody, V domains shown)
VH: B1 VH with L11V, R19K, A24T, E89G, T97A
VL: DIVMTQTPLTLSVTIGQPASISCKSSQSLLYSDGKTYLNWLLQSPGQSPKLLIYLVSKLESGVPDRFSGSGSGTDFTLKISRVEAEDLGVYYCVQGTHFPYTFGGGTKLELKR
notes: mouse-human chimeric IgG from HEK293

Biological target: T1, Peptide_082 (human)
T1 peptide: RHLSNVSSTGSIDMV
Assay: peptide array
Method: (§1) Chimeric IgG antibodies were diluted to a concentration of 5 μg/mL in 3% bovine serum albumin in Tris-buffered saline (10 mM Tris, pH 7.5, 150 mM NaCl) supplemented with 0.05% Tween®20 (3% BSA-TBST). Diluted antibodies were allowed to bind to peptides printed onto slides for 2 hours at room temperature as described in the PepStar™ user manual (JPT Technologies). Following extensive washing (5×5 minutes with TBST), slides were incubated with secondary antibodies goat anti-human IgG, Alexa Fluor 568 conjugate, 1 μg/mL in 3% BSA-TBST) for 1 hour at room temperature. After extensive washing, (5×5 minutes with TBST, then 5×5 minutes with ultrapure water), slides were dried overnight and imaged using an Opera Phenix™ system in the 568 nm channel. Images were aligned to peptide array definition files using Galviewer software obtained from JPT Technologies and ImageJ software with control human IgG serving as landmarks.
(§2) Full-length human Tau (encoded by the microtubule-associated protein Tau isoform 2 gene (MAPT), amino acid sequence NCBI Reference Sequence No. NP_005901.2, SEQ ID NO: 1, variant designation “2N4R”) was divided into 15 amino acid peptides, offset by 5 amino acids (overlapping by 10 amino acids). Peptides were synthesized and covalently attached to silica slides in triplicate with a spot size of 0.5 mm (obtained from JPT Technologies, Berlin, Germany). Antibodies muIgG were diluted to a concentration of 30 μg/mL in 3% bovine serum albumin in Tris-buffered saline (10 mM Tris, pH 7.5, 150 mM NaCl) supplemented with 0.05% Tween® 20 (3% BSA-TBST). Diluted antibodies were allowed to bind to peptides printed onto slides for 2 hours at room temperature as described in the Pepstar™ user manual (JPT Technologies). Following extensive washing (5×5 min TBST), slides were incubated with secondary antibodies (donkey anti-mouse IgG, Alexafluor 647 conjugate, 5 μg/mL in 3% BSA-TBST) for 1 hour at room temperature. After extensive washing, (5×5 minutes TBST, 5×5 minutes ultrapure water), slides were dried under a stream of nitrogen and imaged on the Opera Phenix in the 647 nm channel. Images were aligned to peptide array definition file using Galviewer software obtained from JPT Technologies and ImageJ software with control mouse IgG serving as landmarks.
B1: no binding (tested: 5 ug/mL). B2: no binding (tested: 5 ug/mL).

Biological target: T2, Peptide_009 (human)
T2 peptide: AGLKESPLQTPTEDG
Assay: peptide array
Method: as §1, §2
B1: no binding (tested: 5 ug/mL). B2: no binding (tested: 5 ug/mL).

Biological target: T3, Peptide_020 (human)
T3 peptide: EIPEGTTAEEAGIGD
Assay: peptide array
Method: as §1, §2
B1: no binding (tested: 5 ug/mL). B2: no binding (tested: 5 ug/mL).

Biological target: T4, Peptide_063 (human)
T4 peptide: KPVDLSKVTSKCGSL
Assay: peptide array
Method: as §1, §2
B1: no binding (tested: 5 ug/mL). B2: no binding (tested: 5 ug/mL).

Biological target: T5, Peptide_054 (human)
T5 peptide: LKHQPGGGKVQIINK
Assay: peptide array
Method: as §1, §2
B1: no binding (tested: 5 ug/mL). B2: no binding (tested: 5 ug/mL).

Biological target: T6, Peptide_042 (human)
T6 peptide: PGSRSRTPSLPTPPT
Assay: peptide array
Method: as §1, §2
B1: no binding (tested: 5 ug/mL). B2: no binding (tested: 5 ug/mL).

Biological target: T7, Peptide_086 (human)
T7 peptide: ATLADEVSASLAKQG
Assay: peptide array
Method: as §1, §2
B1: no binding (tested: 5 ug/mL). B2: no binding (tested: 5 ug/mL).

Biological target: T8, Peptide_001 (human)
T8 peptide: MAEPRQEFEVMEDHA
Assay: peptide array
Method: as §1, §2
B1: no binding (tested: 5 ug/mL). B2: no binding (tested: 5 ug/mL).

Biological target: T9, Peptide_027 (human)
T9 peptide: SKDGTGSDDKKAKGA
Assay: peptide array
Method: as §1, §2
B1: no binding (tested: 5 ug/mL). B2: no binding (tested: 5 ug/mL).

Biological target: T10, Peptide_065 (human)
T10 peptide: KCGSLGNIHHKPGGG
Assay: peptide array
Method: as §1, §2
B1: no binding (tested: 5 ug/mL). B2: no binding (tested: 5 ug/mL).

Biological target: T11, Peptide_080 (human)
T11 peptide: SPVVSGDTSPRHLSN
Assay: peptide array
Method: as §1, §2
B1: no binding (tested: 5 ug/mL). B2: no binding (tested: 5 ug/mL).

Biological target: T12, Peptide_043 (human)
T12 peptide: RTPSLPTPPTREPKK
Assay: peptide array
Method: as §1, §2
B1: no binding (tested: 5 ug/mL). B2: no binding (tested: 5 ug/mL).

Biological target: T13, Peptide_012 (human)
T13 peptide: SEEPGSETSDAKSTP
Assay: peptide array
Method: as §1, §2
B1: no binding (tested: 5 ug/mL). B2: no binding (tested: 5 ug/mL).

Biological target: T14, Peptide_011 (human)
T14 peptide: PTEDGSEEPGSETSD
Assay: peptide array
Method: as §1, §2
B1: no binding (tested: 5 ug/mL). B2: no binding (tested: 5 ug/mL).

Biological target: T15, Peptide_014 (human)
T15 peptide: AKSTPTAEDVTAPLV
Assay: peptide array
Method: as §1, §2
B1: no binding (tested: 5 ug/mL). B2: no binding (tested: 5 ug/mL).

Biological target: T16, Peptide_041 (human)
T16 peptide: GSPGTPGSRSRTPSL
Assay: peptide array
Method: as §1, §2
B1: no binding (tested: 5 ug/mL). B2: no binding (tested: 5 ug/mL).

Biological target: T17, Peptide_046 (human)
T17 peptide: VAVVRTPPKSPSSAK
Assay: peptide array
Method: as §1, §2
B1: no binding (tested: 5 ug/mL). B2: no binding (tested: 5 ug/mL).

Biological target: T18, Peptide_040 (human)
T18 peptide: GYSSPGSPGTPGSRS
Assay: peptide array
Method: as §1, §2
B1: no binding (tested: 5 ug/mL). B2: no binding (tested: 5 ug/mL).

Biological target: T19, process-control peptide
T19 construct: array control, not a Tau peptide
T19 peptide: GGSGGGSDYKDDDDK
Assay: peptide array
Method: as §1, §2
B1: no binding (tested: 5 ug/mL). B2: no binding (tested: 5 ug/mL).

Biological target: T20, Peptide_002 (human)
T20 peptide: QEFEVMEDHAGTYGL
Assay: peptide array
Method: as §1, §2
B1: no binding (tested: 5 ug/mL). B2: no binding (tested: 5 ug/mL).

Biological target: T21, Peptide_036 (human)
T21 peptide: PPAPKTPPSSGEPPK
Assay: peptide array
Method: as §1, §2
B1: no binding (tested: 5 ug/mL). B2: no binding (tested: 5 ug/mL).

Biological target: T22, Peptide_061 (human)
T22 peptide: PGGGSVQIVYKPVDL
Assay: peptide array
Method: as §1, §2
B1: no binding (tested: 5 ug/mL). B2: no binding (tested: 5 ug/mL).

Biological target: T23, Peptide_003 (human)
T23 peptide: MEDHAGTYGLGDRKD
Assay: peptide array
Method: as §1, §2
B1: no binding (tested: 5 ug/mL). B2: no binding (tested: 5 ug/mL).

Biological target: T24, Peptide_066 (human)
T24 peptide: GNIHHKPGGGQVEVK
Assay: peptide array
Method: as §1, §2
B1: no binding (tested: 5 ug/mL). B2: no binding (tested: 5 ug/mL).

Biological target: T25, Peptide_037 (human)
T25 peptide: TPPSSGEPPKSGDRS
Assay: peptide array
Method: as §1, §2
B1: no binding (tested: 5 ug/mL). B2: no binding (tested: 5 ug/mL).

Biological target: T26, Peptide_060 (human)
T26 peptide: NIKHVPGGGSVQIVY
Assay: peptide array
Method: as §1, §2
B1: no binding (tested: 5 ug/mL). B2: no binding (tested: 5 ug/mL).

Biological target: T27, Peptide_048 (human)
T27 peptide: PSSAKSRLQTAPVPM
Assay: peptide array
Method: as §1, §2
B1: no binding (tested: 5 ug/mL). B2: no binding (tested: 5 ug/mL).

Biological target: T28, Peptide_044 (human)
T28 peptide: PTPPTREPKKVAVVR
Assay: peptide array
Method: as §1, §2
B1: no binding (tested: 5 ug/mL). B2: no binding (tested: 5 ug/mL).

Biological target: T29, Peptide_024 (human)
T29 peptide: DEAAGHVTQARMVSK
Assay: peptide array
Method: as §1, §2
B1: no binding (tested: 5 ug/mL). B2: no binding (tested: 5 ug/mL).

Biological target: T30, Peptide_025 (human)
T30 peptide: HVTQARMVSKSKDGT
Assay: peptide array
Method: as §1, §2
B1: no binding (tested: 5 ug/mL). B2: no binding (tested: 5 ug/mL).

Biological target: T31, Peptide_006 (human)
T31 peptide: QGGYTMHQDQEGDTD
Assay: peptide array
Method: as §1, §2
B1: no binding (tested: 5 ug/mL). B2: no binding (tested: 5 ug/mL).

Biological target: T32, Peptide_058 (human)
T32 peptide: NVQSKCGSKDNIKHV
Assay: peptide array
Method: as §1, §2
B1: no binding (tested: 5 ug/mL). B2: no binding (tested: 5 ug/mL).

Biological target: T33, Peptide_071 (human)
T33 peptide: QSKIGSLDNITHVPG
Assay: peptide array
Method: as §1, §2
B1: no binding (tested: 5 ug/mL). B2: no binding (tested: 5 ug/mL).

Biological target: T34, Peptide_087 (human)
T34 peptide: TLADEVSASLAKQGL
Assay: peptide array
Method: as §1, §2
B1: no binding (tested: 5 ug/mL). B2: no binding (tested: 5 ug/mL).

Biological target: T35, Peptide_055 (human)
T35 peptide: GGGKVQIINKKLDLS
Assay: peptide array
Method: as §1, §2
B1: no binding (tested: 5 ug/mL). B2: no binding (tested: 5 ug/mL).
